To fix the notation:
B1: subunit IV, spinach (natural protein, UniProt P00166 1-160, looked up)
chain: MGVTKKPDLNDPVLRAKLAKGMGHNYYGEPAWPNDLLYIFPVVILGTIACNVGLAVLEPSMIGEPADPFATPLEILPEWYFFPVFQILRTVPNKLLGVLLMASVPAGLLTVPFLENVNKFQNPFRRPVATTVFLVGTVVALWLGIGATLPIDKSLTLGLF
B2: iron-sulfur protein (ISP), spinach (natural protein, UniProt P08980 52-230, looked up)
chain: ATSIPADNVPDMQKRETLNLLLLGALSLPTGYMLLPYASFFVPPGGGAGTGGTIAKDALGNDVIAAEWLKTHAPGDRTLTQGLKGDPTYLVVESDKTLATFGINAVCTHLGCVVPFNAAENKFICPCHGSQYNNQGRVVRGPAPLSLALAHCDVDDGKVVFVPWTETDFRTGEAPWWSA
B3: cytochrome b6, spinach (natural protein, UniProt P00165 1-215, looked up)
chain: MSKVYDWFEERLEIQAIADDITSKYVPPHVNIFYCLGGITLTCFLVQVATGFAMTFYYRPTVTDAFASVQYIMTEVNFGWLIRSVHRWSASMMVLMMILHVFRVYLTGGFKKPRELTWVTGVVLGVLTASFGVTGYSLPWDQIGYWAVKIVTGVPDAIPVIGSPLVELLRGSASVGQSTLTRFYSLHTFVLPLLTAVFMLMHFLMIRKQGISGPL

The source of these data is article PMC4672631 (Biochemistry, 2015).

The target in the experiment is cytochrome f (PetA), spinach (spinach, UniProt P16013 36-320). Put plainly: co-purification with SDS-PAGE densitometry.
cytochrome f (PetA), spinach, sequence (P16013 36-320): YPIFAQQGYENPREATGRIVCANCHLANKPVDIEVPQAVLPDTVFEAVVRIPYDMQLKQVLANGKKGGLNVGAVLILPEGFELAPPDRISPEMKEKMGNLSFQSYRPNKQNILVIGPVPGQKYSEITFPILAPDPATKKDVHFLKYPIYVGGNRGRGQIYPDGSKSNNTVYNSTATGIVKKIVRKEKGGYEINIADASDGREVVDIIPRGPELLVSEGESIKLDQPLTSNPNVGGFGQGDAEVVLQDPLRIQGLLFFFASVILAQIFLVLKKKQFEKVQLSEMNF
Turning to B1, the “stoichiometry N” value was 0.85 relative to cyt f.

Regarding B2, the “stoichiometry N” value is 0.95 relative to cyt f.

Turning to B3, the “stoichiometry N” value was 0.96 relative to cyt f.
